# *1 amine or outer side, *2 acyl side, *3 side chain or, on linkers, in order; H or OH if unused. Where no end group is shown, it is not given here. Side-chain parts run from the residue outwards. [ ]: non-standard residue; d: D form. The star is where a group is joined. C18 diacid = O=C(O)CCCCCCCCCCCCCCCCC(=O)*; γGlu = O=C(O)[C@H](CCC(=O)[*:2])N[*:1]; Nle = CCCC[C@H](N)C(=O)O; AEEA = NCCOCCOCC(=O)O; Aib = CC(C)(N)C(=O)O
# T1: human GIP receptor (human, UniProt P48546 22-466)
# T1 sequence (looked up): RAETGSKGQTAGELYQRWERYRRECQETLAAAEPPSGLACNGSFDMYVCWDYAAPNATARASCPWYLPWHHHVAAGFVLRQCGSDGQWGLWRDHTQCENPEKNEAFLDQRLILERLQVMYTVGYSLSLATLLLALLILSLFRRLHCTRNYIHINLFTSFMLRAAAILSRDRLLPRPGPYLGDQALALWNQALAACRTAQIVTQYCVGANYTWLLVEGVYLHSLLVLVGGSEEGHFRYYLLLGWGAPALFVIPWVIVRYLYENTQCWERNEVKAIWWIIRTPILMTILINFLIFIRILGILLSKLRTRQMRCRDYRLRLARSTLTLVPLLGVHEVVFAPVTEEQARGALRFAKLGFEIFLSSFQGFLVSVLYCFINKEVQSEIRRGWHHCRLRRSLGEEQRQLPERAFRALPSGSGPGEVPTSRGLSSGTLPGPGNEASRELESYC
# Assays:
# Experiment in all cases: cell-based or functional assay
# human GIP receptor = biological target: T1, human GIP receptor
# human GLP-1 receptor = human GLP-1 receptor (human, UniProt P43220 24-463)
# human glucagon receptor = human glucagon receptor (human, UniProt P47871 26-477)
# Chain of human glucagon receptor (P47871 26-477): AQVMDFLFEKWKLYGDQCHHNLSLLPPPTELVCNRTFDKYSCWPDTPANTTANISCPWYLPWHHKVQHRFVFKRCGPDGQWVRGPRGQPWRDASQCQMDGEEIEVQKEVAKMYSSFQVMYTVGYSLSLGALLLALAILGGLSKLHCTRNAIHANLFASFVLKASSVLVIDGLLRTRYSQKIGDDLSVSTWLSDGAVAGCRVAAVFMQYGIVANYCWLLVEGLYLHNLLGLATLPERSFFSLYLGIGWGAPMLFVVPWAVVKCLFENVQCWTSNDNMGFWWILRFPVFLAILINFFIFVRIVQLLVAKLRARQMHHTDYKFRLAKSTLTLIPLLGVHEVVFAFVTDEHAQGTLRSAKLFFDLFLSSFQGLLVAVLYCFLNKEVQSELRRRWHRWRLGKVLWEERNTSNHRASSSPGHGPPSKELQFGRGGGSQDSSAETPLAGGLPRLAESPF
"EC50, hGIP-R CRE Luc, 0.2% HSA (human GIP receptor) [nM]","EC50, hGLP-1-R CRE Luc, 0.2% HSA (human GLP-1 receptor) [nM]","EC50, hGcg-R CRE Luc, 0.2% HSA (human glucagon receptor) [nM]","EC50, hGLP-1-R CRE Luc, 1% HSA (*) (human GLP-1 receptor) [nM]","EC50, hGcg-R CRE Luc, 1% HSA (*) (human glucagon receptor) [nM]",Binder
0.00447,> 100,> 100,,,Y[Aib]EGTFISDYSIA[Nle]DKIRQQDFVK([γGlu-γGlu-γGlu-C18 diacid])WLLAQKGKEEDWKHNITQ
0.056,,,> 100,> 100,Y[Aib]EGTFISDYSIALDKIHQQDFVK([AEEA-AEEA-γGlu-C18 diacid])WLLAQKGKKNDWKHNITQ
0.0059,> 100,> 100,,,Y[Aib]EGTFISDYSIA[Nle]DKIHQQDFVK([γGlu-γGlu-γGlu-C18 diacid])WLLAQKGKEDDWKHNITQ
